Reference: US20240240159A1

Tests used:
Assay in all cases: cell-based or functional assay
[1] = target: 358HNL-H1 epitope-grafted FAD-GDH
[2] = target: 358HNL-H3 epitope-grafted FAD-GDH
[3] = target: Purified NTproBNP antigen (UniProt P16860)
[4] = target: 358BP NTproBNP epitope-grafted FAD-GDH
[5] = target: 341BP NTproBNP epitope-grafted FAD-GDH
[6] = target: 341V5 epitope-grafted FAD-GDH
[7] = target: V5 peptide, Sigma (cat #V7754-4MG)

Sequence of UniProt P16860 (P16860 27-134 limits assumed): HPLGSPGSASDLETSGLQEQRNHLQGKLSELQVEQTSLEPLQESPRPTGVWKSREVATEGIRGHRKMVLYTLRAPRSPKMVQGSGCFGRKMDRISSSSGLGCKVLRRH
Sequence of 358BP NTproBNP epitope-grafted FAD-GDH (chain, as listed by the source): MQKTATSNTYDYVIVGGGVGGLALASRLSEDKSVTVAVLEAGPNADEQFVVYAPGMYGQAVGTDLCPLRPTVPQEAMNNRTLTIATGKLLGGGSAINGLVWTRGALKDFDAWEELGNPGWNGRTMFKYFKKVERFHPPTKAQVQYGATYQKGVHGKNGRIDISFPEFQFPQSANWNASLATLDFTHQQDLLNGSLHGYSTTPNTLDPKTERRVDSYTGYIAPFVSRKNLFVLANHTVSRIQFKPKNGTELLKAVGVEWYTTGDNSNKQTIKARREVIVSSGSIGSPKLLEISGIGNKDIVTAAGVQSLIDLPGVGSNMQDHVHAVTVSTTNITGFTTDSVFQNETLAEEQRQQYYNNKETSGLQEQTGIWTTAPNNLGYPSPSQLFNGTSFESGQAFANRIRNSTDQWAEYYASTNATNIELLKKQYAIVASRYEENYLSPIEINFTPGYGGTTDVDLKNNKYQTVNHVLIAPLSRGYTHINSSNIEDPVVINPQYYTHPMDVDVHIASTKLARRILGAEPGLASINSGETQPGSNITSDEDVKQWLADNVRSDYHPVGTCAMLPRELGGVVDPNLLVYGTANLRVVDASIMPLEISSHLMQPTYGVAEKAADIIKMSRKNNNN
Sequence of 358HNL-H3 epitope-grafted FAD-GDH (chain, as listed by the source): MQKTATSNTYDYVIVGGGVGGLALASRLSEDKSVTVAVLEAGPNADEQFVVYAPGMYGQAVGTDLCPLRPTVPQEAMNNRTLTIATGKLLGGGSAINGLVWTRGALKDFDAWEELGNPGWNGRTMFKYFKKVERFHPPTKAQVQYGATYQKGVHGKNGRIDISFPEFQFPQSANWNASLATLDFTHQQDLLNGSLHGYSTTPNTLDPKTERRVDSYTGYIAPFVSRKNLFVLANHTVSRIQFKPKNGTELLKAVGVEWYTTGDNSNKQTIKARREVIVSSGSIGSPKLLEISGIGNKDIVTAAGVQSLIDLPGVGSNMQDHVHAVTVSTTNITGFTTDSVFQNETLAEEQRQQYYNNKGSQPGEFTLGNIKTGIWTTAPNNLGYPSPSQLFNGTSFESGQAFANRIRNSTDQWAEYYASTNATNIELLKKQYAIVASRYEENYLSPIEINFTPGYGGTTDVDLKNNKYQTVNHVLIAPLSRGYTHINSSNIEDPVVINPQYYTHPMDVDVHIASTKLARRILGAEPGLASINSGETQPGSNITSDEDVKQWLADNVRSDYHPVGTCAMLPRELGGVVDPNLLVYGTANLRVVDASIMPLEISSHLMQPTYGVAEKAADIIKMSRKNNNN
Sequence of 358HNL-H1 epitope-grafted FAD-GDH (chain, as listed by the source): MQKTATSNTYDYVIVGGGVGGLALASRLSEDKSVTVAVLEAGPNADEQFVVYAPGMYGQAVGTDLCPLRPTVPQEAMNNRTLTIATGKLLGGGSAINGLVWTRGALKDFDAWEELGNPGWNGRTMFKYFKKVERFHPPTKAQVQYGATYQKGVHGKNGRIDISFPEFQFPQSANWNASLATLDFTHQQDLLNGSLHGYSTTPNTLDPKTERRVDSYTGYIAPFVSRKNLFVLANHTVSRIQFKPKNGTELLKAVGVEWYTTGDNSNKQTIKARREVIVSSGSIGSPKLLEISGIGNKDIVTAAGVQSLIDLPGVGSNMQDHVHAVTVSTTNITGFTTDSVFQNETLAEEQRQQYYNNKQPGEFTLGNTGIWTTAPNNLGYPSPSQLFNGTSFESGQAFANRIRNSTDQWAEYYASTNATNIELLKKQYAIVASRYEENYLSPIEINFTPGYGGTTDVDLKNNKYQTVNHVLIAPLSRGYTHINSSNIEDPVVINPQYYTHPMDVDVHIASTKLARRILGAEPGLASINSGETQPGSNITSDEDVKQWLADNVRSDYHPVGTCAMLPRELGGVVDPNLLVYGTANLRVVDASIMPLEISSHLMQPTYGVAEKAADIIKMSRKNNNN
Sequence of 341BP NTproBNP epitope-grafted FAD-GDH (chain, as listed by the source): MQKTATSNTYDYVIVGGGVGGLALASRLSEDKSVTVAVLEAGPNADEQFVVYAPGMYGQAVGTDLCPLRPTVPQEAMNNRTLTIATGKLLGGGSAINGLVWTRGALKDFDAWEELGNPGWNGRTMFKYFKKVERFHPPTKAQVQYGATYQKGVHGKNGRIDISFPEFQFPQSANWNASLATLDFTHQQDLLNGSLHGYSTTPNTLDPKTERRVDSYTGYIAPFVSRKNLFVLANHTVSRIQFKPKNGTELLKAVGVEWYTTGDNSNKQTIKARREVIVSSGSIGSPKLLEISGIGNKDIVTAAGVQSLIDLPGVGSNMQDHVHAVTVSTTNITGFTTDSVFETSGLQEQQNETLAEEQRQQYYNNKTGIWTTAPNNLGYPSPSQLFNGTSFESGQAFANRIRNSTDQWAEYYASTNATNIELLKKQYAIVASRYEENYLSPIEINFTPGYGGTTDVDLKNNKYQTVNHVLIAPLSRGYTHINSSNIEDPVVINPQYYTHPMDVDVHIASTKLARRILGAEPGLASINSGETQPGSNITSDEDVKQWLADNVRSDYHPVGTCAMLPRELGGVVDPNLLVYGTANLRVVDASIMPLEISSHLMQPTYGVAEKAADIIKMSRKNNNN

## Rabbit α-HNL mAb, Abcam (cat #ab206427) (antibody)
[1]
  percent inhibition of GDH activity, 25 nM antibody: 20%
[2]
  percent inhibition of GDH activity, 25 nM antibody: 60%

## Mouse α-NTproBNP antibody, Novus (cat #NB200-439)
[3]
  percent inhibition by 500 nM Novus antibody in the presence of 5 µM NTproBNP antigen: 0%
[4]
  percent inhibition of GDH activity, 500 nM antibody: 7%

## Mouse α-NTproBNP antibody, Biorad (cat #MCA2641)
[3]
  percent inhibition of 341BP / 358BP by 500 nM antibody in the presence of 5 µM NTproBNP antigen: 0%
[5]
  percent inhibition of GDH activity, 500 nM antibody: 25%
[4]
  percent inhibition of GDH activity, 500 nM antibody: 7%

## α-V5 antibody, mouse monoclonal, Sigma (cat #V8012-50UG)
[6]
  percent inhibition of GDH activity, 300 nM antibody: 50%
[7]
  percent inhibition of 341V5 by 300 nM α-V5 antibody in the presence of 3 µM V5 peptide: 9%
